Results on 1 molecule are retold here after PMC8407082, “An Integrative Approach to Determine 3D Protein Structures Using Sparse Paramagnetic NMR Data and Physical Modeling” (Frontiers in Molecular Biosciences, 2021).

The target of the assay is T1, calmodulin (UniProt P0DP23 1-149).
T1 construct: calmodulin, printed as 148 residues long; 13C/15N-labelled; The MELD model has 149 residues (with the extension C149); also called CaM; source: expressed in M9 minimal medium with 15NH4Cl and 13C6-glucose, purified as described previously (Liu and Vogel, 2012; Ishida et al., 2016)
The assay can be described thus: solution NMR (backbone chemical shifts, PRE, RDC) with MELD modelling of the complex's structure; 600 MHz; 1.2-fold excess of peptide mixed with CaM; RDCs in 2 mM bis-Tris pH 7.0, 300 mM KCl, 16 mg/ml Pf1 bacteriophage. The following applies: both partners purified.

B1: smooth muscle myosin light chain kinase peptide (peptide)
peptide: PARRKWQKTGHAVRAIGRLSS
notes: proline left from the Asp-Pro acid cleavage site of the linker GGGGSSDP; Made unlabelled (LB) or 13C/15N-labelled (M9); The N-terminal proline is not seen in the NMR experiments and was left out of the MELD model; also called smMLCK peptide; smMLCKp; not shown: 6xHis, N-terminal, cleaved; KSI (D38A), N-terminal, cleaved
As for B1, the binding result is “binds”.
